# B1: Hairpin Ribozyme (parent)
# chain: GUCCUCUUUCACGUGCGCGUGAAAGAGAGAAGUGAACCAGAGAAACACACGUUGUGGUAUAUUACCUGGUA
# Variants of: B1
# Assay: self-cleavage, relative activity (ratio to wild type); higher = more cleavage; co-transcriptional
row,Variant,self-cleavage
1,U7A U53G,0.688
2,C6A U20G,0.518
3,U7C G54U,0.242
4,U7C G54C,0.683
5,C6U U58C,0.893
6,C6U U58G,0.663
7,U7A G69A,0.315
8,U7A G69C,0.196
9,C6U C46U,0.176
10,C6U G51U,0.88
11,C6G G54C,0.265
12,U7C C16U,1
13,U7C C50G,0.229
14,U7C C50A,0.209
15,C6A U58C,0.697
16,U7C C12A,0.516
17,U7C G69U,0.179
18,U7A A39G,0.318
19,C6U U14C,0.932
20,C6U U14G,0.791
21,C6U U14A,0.853
22,C6U G27U,0.147
23,C6U G27A,0.309
24,C6U G27C,0.106

row,Variant,self-cleavage
1,C6A U14G,0.499
2,U7C G68U,0.171
3,U7C G68A,0.339
4,C6G G40U,0.103
5,C6U G54A,0.59
6,C6U G54U,0.371
7,U7C G51C,0.489
8,U7C G51U,1.1
9,C6U A11C,0.411
10,C6U A11U,0.578
11,C6U A11G,0.816
12,C6U A44C,0.119
13,C6U A44G,0.132
14,U7G C48G,0.153
15,U7C A39C,0.583
16,U7C A39U,0.465
17,U7C A39G,0.263
18,C6U G69A,0.379
19,U7C A31C,0.112
20,U7C A35C,0.612
21,C6G U14C,0.449
22,U7G C46A,0.0994
23,U7C G19A,0.559
24,U7C G19C,0.683

row,Variant,self-cleavage
1,U7A G54U,0.589
2,U7G A26C,0.0432
3,U7C G17C,0.527
4,C6G U67A,0.15
5,C6U C48G,0.116
6,C6G G57U,0.238
7,U7C A11C,0.525
8,C6U U33G,0.126
9,U7A C66G,0.146
10,U7G A59C,0.0534
11,U7C C18A,0.973
12,U7C C18U,1.06
13,U7C C18G,0.732
14,U7C G56U,0.188
15,U7A A24G,0.702
16,C6U A45U,0.194
17,C6U A45G,0.135
18,C6U A35U,0.765
19,U7G G34U,1.22
20,C6G G21C,0.125
21,C6G G21U,0.181
22,C6G A39C,0.299
23,C6G A39U,0.164
24,U7C C38U,0.211

row,Variant,self-cleavage
1,U7C C38A,0.185
2,U7A C46U,0.159
3,U7A C46G,0.108
4,C6G A47U,0.13
5,C6G A47G,0.0875
6,C6U U60A,0.732
7,C6U U60G,0.502
8,C6A G17A,0.663
9,U7A A30U,0.0668
10,U7A A30C,0.121
11,U7G G27U,0.226
12,U7G G27C,0.152
13,C6U A43U,0.119
14,U7A A11U,0.649
15,U7A A11G,0.855
16,C6G A31U,0.0803
17,C6G A31C,0.0766
18,U7G A30U,0.0317
19,C6G G34U,0.982
20,C6U G25U,0.762
21,C6U G25A,0.751
22,U7C G32A,0.0904
23,U7C G40C,0.156
24,U7G A47G,0.174

row,Variant,self-cleavage
1,U7A G25C,0.402
2,U7A G51A,0.977
3,C6U G21C,0.597
4,C6A C50G,0.175
5,C6A U67G,0.173
6,C6U A31U,0.101
7,C6G G42U,0.113
8,C6U A24U,0.781
9,C6G U7A,0.337
10,C6U C50A,0.24
11,C6U C50U,0.386
12,C6U C50G,0.299
13,C6G A23U,0.344
14,C6G A23G,0.446
15,U7C G29U,0.178
16,U7C G29A,0.204
17,U7C U53G,0.686
18,U7C U53A,1.3
19,C6U C18G,0.775
20,C6U C18U,0.82
21,U7G G19A,0.618
22,C6A G21C,0.364
23,U7A A45U,0.261
24,U7A A45G,0.204

row,Variant,self-cleavage
1,U7A U60A,0.893
2,U7A U9A,0.666
3,U7A U9C,0.714
4,U7A U9G,0.579
5,U7C C37U,0.494
6,U7A A35G,0.796
7,C6A G32C,0.133
8,C6A G32U,0.133
9,C6A G32A,0.122
10,C6G G27A,0.135
11,C6G G27C,0.174
12,C6G G27U,0.161
13,U7A A59C,0.136
14,U7A A59G,0.194
15,C6G U53G,0.454
16,C6U G17U,0.859
17,U7A C12G,0.662
18,U7A G13A,0.962
19,C6G U55C,0.156
20,C6G U55G,0.167
21,C6G U55A,0.13
22,U7A A41U,1.28
23,C6G A45G,0.0674
24,C6G A45U,0.101

row,Variant,self-cleavage
1,C6U A22G,0.796
2,U7C A36C,0.679
3,U7A A71U,0.814
4,U7A A71G,0.895
5,U7C A59U,0.178
6,U7C U58C,0.775
7,U7A A36C,0.573
8,C6G A41U,0.873
9,C6G U70G,0.361
10,C6G U70A,0.399
11,C6U U70A,0.699
12,C6A G51U,0.58
13,U7G G21C,0.332
14,C6U G56A,0.193
15,U7A A49U,0.16
16,U7A A49G,0.49
17,C6U G57A,0.117
18,C6U G57U,0.324
19,U7C A43G,0.0623
20,C6A G27C,0.118
21,C6G G25A,0.523
22,C6U A30C,0.205
23,C6U A30G,0.128

# — the RNAGym collection of RNA variant scans (doi:10.7554/elife.80360)
